The record followed here is patent US20250312444A1 (BEIJING TUO JIE BIOPHARMACEUTICAL, published 2025).

Holding throughout (experiment): cell-based or functional assay
One assay has as its target T1, human RXFP1 receptor (human, UniProt Q9HBX9 1-757).
T1 sequence (looked up): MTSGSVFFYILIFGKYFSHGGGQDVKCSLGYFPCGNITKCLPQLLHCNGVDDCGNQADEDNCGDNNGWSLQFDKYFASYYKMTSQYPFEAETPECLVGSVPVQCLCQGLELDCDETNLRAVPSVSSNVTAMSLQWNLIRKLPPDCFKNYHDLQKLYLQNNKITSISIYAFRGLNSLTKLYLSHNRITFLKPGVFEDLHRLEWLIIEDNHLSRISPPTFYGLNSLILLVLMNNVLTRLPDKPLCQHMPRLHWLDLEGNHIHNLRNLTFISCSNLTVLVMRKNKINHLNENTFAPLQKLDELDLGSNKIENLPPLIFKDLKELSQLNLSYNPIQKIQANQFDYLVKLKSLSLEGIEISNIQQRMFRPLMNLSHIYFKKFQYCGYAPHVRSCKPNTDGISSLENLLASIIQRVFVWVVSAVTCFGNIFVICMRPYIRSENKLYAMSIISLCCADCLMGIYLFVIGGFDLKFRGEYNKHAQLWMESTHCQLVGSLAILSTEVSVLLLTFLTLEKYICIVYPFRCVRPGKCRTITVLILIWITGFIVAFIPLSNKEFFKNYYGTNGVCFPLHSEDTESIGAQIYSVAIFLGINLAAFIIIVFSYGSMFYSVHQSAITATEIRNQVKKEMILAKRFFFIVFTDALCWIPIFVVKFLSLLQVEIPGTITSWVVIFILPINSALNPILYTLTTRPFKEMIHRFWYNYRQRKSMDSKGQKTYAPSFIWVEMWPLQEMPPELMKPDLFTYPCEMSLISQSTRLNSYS

Another assay deals with T2, mouse RXFP1 receptor (mouse, UniProt Q6R6I7 1-758).
T2 sequence (looked up): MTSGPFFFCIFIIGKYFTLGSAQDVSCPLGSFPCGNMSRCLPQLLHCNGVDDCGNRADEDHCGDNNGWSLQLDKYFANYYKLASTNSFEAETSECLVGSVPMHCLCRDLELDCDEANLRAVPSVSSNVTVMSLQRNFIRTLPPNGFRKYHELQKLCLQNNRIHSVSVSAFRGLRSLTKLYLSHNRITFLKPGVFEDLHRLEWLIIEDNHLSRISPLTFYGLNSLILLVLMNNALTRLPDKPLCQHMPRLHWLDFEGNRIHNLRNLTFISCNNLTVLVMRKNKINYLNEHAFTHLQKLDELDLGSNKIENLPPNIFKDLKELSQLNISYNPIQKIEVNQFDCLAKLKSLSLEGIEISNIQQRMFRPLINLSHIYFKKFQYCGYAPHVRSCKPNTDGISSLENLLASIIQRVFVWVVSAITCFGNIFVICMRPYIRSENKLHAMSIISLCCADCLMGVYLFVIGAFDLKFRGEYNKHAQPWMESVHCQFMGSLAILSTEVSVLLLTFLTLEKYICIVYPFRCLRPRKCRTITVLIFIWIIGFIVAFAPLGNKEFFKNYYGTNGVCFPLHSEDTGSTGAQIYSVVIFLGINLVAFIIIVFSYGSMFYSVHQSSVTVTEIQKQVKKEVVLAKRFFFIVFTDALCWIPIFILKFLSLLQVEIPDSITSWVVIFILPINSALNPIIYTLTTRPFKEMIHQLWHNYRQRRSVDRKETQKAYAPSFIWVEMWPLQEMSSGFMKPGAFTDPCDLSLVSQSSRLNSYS

The target of the next assay is T3, rat RXFP1 receptor (rat, UniProt Q6R6I6 1-758).
T3 sequence (looked up): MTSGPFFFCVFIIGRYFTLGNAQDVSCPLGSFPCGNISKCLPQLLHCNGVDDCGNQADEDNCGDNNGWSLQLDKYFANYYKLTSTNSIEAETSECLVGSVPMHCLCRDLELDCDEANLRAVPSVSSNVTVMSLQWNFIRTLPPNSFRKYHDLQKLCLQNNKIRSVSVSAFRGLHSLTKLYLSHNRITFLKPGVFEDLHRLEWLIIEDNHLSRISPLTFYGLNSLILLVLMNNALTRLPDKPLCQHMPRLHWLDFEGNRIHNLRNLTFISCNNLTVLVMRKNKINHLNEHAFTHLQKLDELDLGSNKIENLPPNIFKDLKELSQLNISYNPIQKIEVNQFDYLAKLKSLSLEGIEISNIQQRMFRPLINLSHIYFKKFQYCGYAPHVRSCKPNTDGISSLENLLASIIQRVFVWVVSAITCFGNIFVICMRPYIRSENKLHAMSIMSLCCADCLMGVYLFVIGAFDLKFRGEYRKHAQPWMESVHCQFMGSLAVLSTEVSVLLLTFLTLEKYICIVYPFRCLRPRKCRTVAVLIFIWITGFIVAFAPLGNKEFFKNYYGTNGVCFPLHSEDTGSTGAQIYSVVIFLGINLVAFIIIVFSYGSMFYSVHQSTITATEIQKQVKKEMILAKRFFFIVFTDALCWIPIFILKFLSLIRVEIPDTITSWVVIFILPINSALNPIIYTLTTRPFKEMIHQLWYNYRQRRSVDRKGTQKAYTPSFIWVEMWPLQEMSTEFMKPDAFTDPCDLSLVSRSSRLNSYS

Assay [1] addresses T4, cynomolgus monkey RXFP1 receptor (cynomolgus monkey, UniProt H9ERA2 1-757 (rhesus entry)).
T4 sequence: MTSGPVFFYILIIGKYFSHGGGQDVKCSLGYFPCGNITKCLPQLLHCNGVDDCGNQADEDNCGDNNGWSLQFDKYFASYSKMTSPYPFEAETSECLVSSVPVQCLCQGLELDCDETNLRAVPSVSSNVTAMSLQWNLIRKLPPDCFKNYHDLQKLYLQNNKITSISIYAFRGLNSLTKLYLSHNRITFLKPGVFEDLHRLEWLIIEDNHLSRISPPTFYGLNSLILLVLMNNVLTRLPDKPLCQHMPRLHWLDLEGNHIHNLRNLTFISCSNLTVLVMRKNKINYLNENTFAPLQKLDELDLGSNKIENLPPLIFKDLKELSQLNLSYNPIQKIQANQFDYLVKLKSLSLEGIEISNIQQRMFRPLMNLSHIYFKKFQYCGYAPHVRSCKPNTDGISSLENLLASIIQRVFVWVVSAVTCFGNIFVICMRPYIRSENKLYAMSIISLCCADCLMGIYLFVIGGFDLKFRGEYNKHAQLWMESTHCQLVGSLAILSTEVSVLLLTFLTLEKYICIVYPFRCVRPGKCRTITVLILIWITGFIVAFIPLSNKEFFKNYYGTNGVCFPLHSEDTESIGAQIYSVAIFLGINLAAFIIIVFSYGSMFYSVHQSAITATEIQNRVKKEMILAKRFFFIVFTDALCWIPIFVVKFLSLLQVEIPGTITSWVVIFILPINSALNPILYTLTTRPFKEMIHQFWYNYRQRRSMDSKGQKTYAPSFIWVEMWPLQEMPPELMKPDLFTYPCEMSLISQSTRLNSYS

B1: 0051 (other)
chain: EVQLLESGGGLVQPGGSLRLSCAASGFTFLTSCMGWFRQAPGKEREGVSSIYTVGGSTFYTNSVKGRFTISRDNSKNTLYLQMNSLRAEDTAVYYCAAGSPARCRLRDPTTFDYWGQGTLVTVSSGGGGQGGGGQGGGGQGGGGQGGGGQSWMEEVIKLCGRELVRAQIAICGMSTWSGGGSGGSGGGQLYSALANKCCHVGCTKRSLARFC
notes: Single-chain fusion: anti-HSA VHH, linker, relaxin-2 B chain, linker, relaxin-2 A chain; also called fusion protein 0051; molecule 0051
In the case of B1, the “EC50 (nM), cAMP production in THP1 cells, 1% HSA” value with human RXFP1 receptor is 28.4 nM. In the assay with human RXFP1 receptor, the “EC50 (nM), cAMP production in THP1 cells, without HSA” value was found to be 3.83 nM. For the same molecule, the results for the “EC50 (nM), cAMP production in CHO-K1 cells with receptor overexpression” value (with mouse RXFP1 receptor; in the assay with rat RXFP1 receptor; in assay [1]) were 21.7 nM, 21.1 nM and 25.1 nM, respectively.
